Data from publication doi:10.1101/2024.02.20.581209 (bioRxiv, 2024).

B1: RomX (N-terminal hexahistidine tagged construct) (natural protein, M. xanthus)
chain: MTDEEKVKAMRLARAIASDISLYNEQKIIKGIEQDNLFEVLKEELEEGRELYKSRVSQEIFTKMNFFERAINDIVLRSKAHVKSKIW

Columns and labels:
[1] = biological target: RomR-REC^141 (Myxococcus xanthus); assay: SEC-MALS
[2] = biological target: T1, MglA (Myxococcus xanthus, UniProt Q1DB04 1-195); assay: ITC
T1 sequence: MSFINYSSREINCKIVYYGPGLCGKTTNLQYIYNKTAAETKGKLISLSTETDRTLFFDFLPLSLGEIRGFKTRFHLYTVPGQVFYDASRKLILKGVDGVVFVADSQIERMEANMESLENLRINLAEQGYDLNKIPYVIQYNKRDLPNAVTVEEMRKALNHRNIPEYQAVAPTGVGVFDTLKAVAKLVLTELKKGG

[3] = biological target: RomR-REC^125 (Myxococcus xanthus); assay: ITC
[4] = biological target: RomR-REC^141 (Myxococcus xanthus); assay: ITC

stoichiometry N [1] | Kd [2] [nM] | stoichiometry N [2] | Kd [3] [nM] | stoichiometry N [3] | Kd [4] [nM] | stoichiometry N [4] | Molecule
1 |  |  |  |  |  |  | RomX (hexahistidine-tagged, end of the tag not told for this experiment) (natural protein)
 | 4800 | 1.1 | 1140 | 1.3 | 1200 | 1.2 | B1
